# Data from patent US20260185070A1, “CRISPR-Cas Effector Polypeptides, Lipid Nanoparticles, and Methods of Use Thereof” (The Regents of the University of California, priority 2022, published 2026).
# B1: GeoCas9: Geobacillus stearothermophilus CRISPR-Cas effector polypeptide, SEQ ID NO: 1; thermostable type II-C Cas9 (protein, listed as Geobacillus stearothermophilus)
# chain: MRYKIGLDIGITSVGWAVMNLDIPRIEDLGVRIFDRAENPQTGESLALPRRLARSARRRLRRRKHRLERIRRLVIREGILTKEELDKLFEEKHEIDVWQLRVEALDRKLNNDELARVLLHLAKRRGFKSNRKSERSNKENSTMLKHIEENRAILSSYRTVGEMIVKDPKFALHKRNKGENYTNTIARDDLEREIRLIFSKQREFGNMSCTEEFENEYITIWASQRPVASKDDIEKKVGFCTFEPKEKRAPKATYTFQSFIAWEHINKLRLISPSGARGLTDEERRLLYEQAFQKNKITYHDIRTLLHLPDDTYFKGIVYDRGESRKQNENIRFLELDAYHQIRKAVDKVYGKGKSSSFLPIDFDTFGYALTLFKDDADIHSYLRNEYEQNGKRMPNLANKVYDNELIEELLNLSFTKFGHLSLKALRSILPYMEQGEVYSSACERAGYTFTGPKKKQKTMLLPNIPPIANPVVMRALTQARKVVNAIIKKYGSPVSIHIELARDLSQTFDERRKTKKEQDENRKKNETAIRQLMEYGLTLNPTGHDIVKFKLWSEQNGRCAYSLQPIEIERLLEPGYVEVDHVIPYSRSLDDSYTNKVLVLTRENREKGNRIPAEYLGVGTERWQQFETFVLTNKQFSKKKRDRLLRLHYDENEETEFKNRNLNDTRYISRFFANFIREHLKFAESDDKQKVYTVNGRVTAHLRSRWEFNKNREESDLHHAVDAVIVACTTPSDIAKVTAFYQRREQNKELAKKTEPHFPQPWPHFADELRARLSKHPKESIKALNLGNYDDQKLESLQPVFVSRMPKRSVTGAAHQETLRRYVGIDERSGKIQTVVKTKLSEIKLDASGHFPMYGKESDPRTYEAIRQRLLEHNNDPKKAFQEPLYKPKKNGEPGPVIRTVKIIDTKNQVIPLNDGKTVAYNSNIVRVDVFEKDGKYYCVPVYTMDIMKGILPNKAIEPNKPYSEWKEMTEDYTFRFSLYPNDLIRIELPREKTVKTAAGEEINVKDVFVYYKTIDSANGGLELISHDHRFSLRGVGSRTLKRFEKYQVDVLGNIYKVRGEKRVGLASSAHSKPGKTIRPLQSTRD
# What was measured:
# [1] = test system: EGFP transgene in a model HEK293T cell line; assay: EGFP-to-BFP HDR by LNP co-delivery of RNP and ssDNA template in HEK293T cells; type: cell-based, human; settings: additive in RNP LNPs; in words
# Excerpt: It was investigated if the co-delivery of iGeoCas9 RNPs and ssDNA templates in LNPs could switch EGFP to the blue fluorescent protein (BFP) in a model HEK293T cell line (FIG. 43b). In this cell assay, editing of the chromophore Thr-Tyr-Gly in the EGFP transgene followed by HDR to install a Ser/Thr-His-Gly chromophore turns EGFP into BFP. Four sgRNAs, rEGFP-R1 to R4, were designed to target the coding and non-coding strands in the chromophore region for editing. To avoid possible recutting events after the incorporation of the desired edits, four ssDNA HDR templates were designed to introduce GFP-to-BFP edits together with additional silent mutations in the DNA sequence. […] The HDR level was quantified to be between 20-40% by flow cytometry with 50-75% of non-homologous end-joining (NHEJ) indicated as EGFP knockdown (FIGS. 4b and 51).
# LNP delivery: 4-6.5k cells/well were seeded in 96-well plates 48 hours prior to LNP treatment (HEK293 cells: 4-5k. NPCs: 5-6k, and 16HBEge cells: 6-6.5k). The culture media was refreshed 24 hours after LNP treatment. HEK293T cells were split after 2 additional days with a ratio of […] based on cell confluency. […]
# Cell fluorescence was assayed on an Attune NxT acoustic focusing cytometer (Thermo Fisher Scientific) equipped with 554 nm excitation laser and 585/16 emission filter (tdTomato). […] Data were analyzed using Attune Cytometric Software v5.1.1.
# NPCs = assay: NPC viability with LNPs containing different pegylated lipids; type: cell-based, mouse
# Excerpt: Several pegylated lipids, commercial and synthetic, were examiner for their ability to encapsulate and deliver iGeoCas9 RNPs in LNPs (FIG. 48c). […] The reduced toxicity and enhanced delivery efficiency of these 3 PEGylated lipids stems from the pH-sensitive, acid-degradable acetal linker used in their synthesis (FIG. 49): the labile acetal linker could be cleaved in the late endosome stage of LNP delivery with a pH of 5-6, which frees the PEG moiety from the lipid molecules to reduce cytotoxicity and meanwhile destabilizes the endosome to promote the release of RNP into the cytosol. Further optimization of other parameters (e.g., mole and volume ratios of lipids to RNP, and salt concentration in the buffer, FIG. 50b) in LNP assembly established two sets of lipid formulations, i.e., standard formula (with DOTAP as the cationic lipid) and cationic formula (with ADC as the cationic lipid), which encapsulate GeoCas9 RNPs with good particle uniformity (diameter: 170-180 nm, PDI: 0.13-0.17) (FIG. 41b).
# ccdB toxin gene = assay: bacterial dual-plasmid selection assay (Cas9 cleavage of ccdB plasmid, survival rate); type: cell-based, E. coli; settings: for survival rate: sgRNA target sequence #6, PAM ggatGAAA
# Description: A bacterial dual-plasmid selection system was employed for the directed evolution of GeoCas9, which has been successfully employed for engineering other CRISPR Cas effectors. […] To search for a reliable evolution starting point with minimal activity in the E. coli assay, 20 different sgRNAs that target the ccdB gene at the protospacers associated with different PAM sequences were screened (FIG. 46d) and selection under two sets of conditions was performed (37 C or 30 C for 1.5 hours). […] Libraries of GeoCas9 mutants were generated by targeting different domains of the protein for random mutagenesis (FIG. 46a) and then subjected to the selection system under the conditions at 30° C.
# A chloramphenicol-resistant (CAM+) bacterial expression plasmid was built to have the insert gene of GeoCas9 together with its corresponding sgRNA that targets the ccdB gene in the selection plasmid with a PAM of GAAA (g6). Libraries of GeoCas9 mutants were generated by error-prone PCR to introduce random mutagenesis in three different regions (BH-Rec, RuvC-HNH-WED, and WED-PI). The error-prone PCR (with an error rate of 3- to 5-nucleotide mutations per kilobase) was carried out with the Taq DNA polymerase (New England BioLabs) in a reaction containing 2 μl of 10 mM primers, 1.5 μl of 10 mM MnCl2, 2 ng of template plasmid. The plasmid libraries were generated by ligating the mutated fragments with the remaining part of the plasmid through Gibson assembly. The plasmid libraries (-100 ng DNA after clean-up) were electroporated into 50 μl of electronically competent cells made from E. coli strain BW25141(DE3) that contains the selection plasmid encoding the arabinose-inducible ccdB toxin gene. After recovery of the electroporated bacteria in 750 μl of SOB for 1.5 hours at 30° C., the bacteria culture was concentrated; 1% of the total culture was plated onto a Petri agar dish containing only CAM (as control), and the remainder culture was plated on another Petri agar-dish containing both arabinose and CAM. […]
# [2] = protein melting temperature, thermal shift assay; type: physicochemical
# Description: Protein melting temperatures were measured using the thermal shift assay (GloMelt™, CAT #33021). The assay was performed on a quantitative PCR system with a temperature increase rate of 2° C./min. The protein melting temperatures were determined as the peak values in the derivative curves of the melting curves.
molecule,measurement,setting,value
heparin,effect of anionic polymer additive on editing levels,[1],reduced editing
DMG-PEG,toxicity / biocompatibility with NPCs,NPCs,detrimental to NPC viability
B1,survival rate,ccdB toxin gene; selection 30° C. for 1.5 hours,< 0.1%
same,survival rate,ccdB toxin gene; selection 37 C for 1.5 hours,2-5%
same,survival in the bacterial assay,"ccdB toxin gene; validation of selected mutant vs wild-type, temperature not stated",< 5%
same,Tm (thermostability),[2],60 °C
